T1: recombinant HMG1 purified from E. coli as a calmodulin binding protein (CBP) fusion protein (human)
T1 chain: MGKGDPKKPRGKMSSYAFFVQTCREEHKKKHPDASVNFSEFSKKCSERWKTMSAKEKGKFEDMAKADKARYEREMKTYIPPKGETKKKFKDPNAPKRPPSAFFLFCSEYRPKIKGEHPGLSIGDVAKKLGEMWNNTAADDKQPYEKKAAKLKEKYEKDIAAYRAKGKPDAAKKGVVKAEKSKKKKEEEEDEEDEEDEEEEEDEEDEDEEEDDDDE

B1: anti-HMG1 antibody G20 (antibody, V domains shown)
VH: EVQLLESGGGLVQPGGSLRLSCAASGFTFSWYDMFWVRQAPGKGLEWVSWISPSGGYTKYADSVKGRFTISRDNSKNTLYLQMNSLRAEDTAMYYCARSGLDYYDSSGYLDAFDIWGQGTMVTVSS
VL: AQDIQMTQSPSSVSASVGDRVTITCRASQDVSIWLAWYQQKPGKAPKLLIFGASRLQSGVPSRFSGSRSGADFTLTIDSVQPEDFASYYCQQADSFPLTFGGGTKVEIK
B2: anti-HMG1 antibody S17 (antibody, V domains shown)
VH: EVQLLESGGGLVQPGGSLRLSCAASGFTFSYYDMHWVRQAPGKGLEWVSRISPSGGYTWYADSVKGRFTISRDNSKNTLYLQMNSLRAEDTAVYYCTRGRYTSGWHEYFDPWGQGTLVTVSS
VL: AQDIQMTQSPSSLSASVGDRVTITCRASQSIGTYLNWYQQKPGTAPKVLIYAASSLQSGVPSRFSGSGSGTDFTLTISSLQPEDFSTYYCQQSYNTPRTFGQGTKLEIK
B3: anti-HMG1 antibody G2 (antibody, V domains shown)
VH: EVQLLESGGGLVQPGGSLRLSCAASGFTFSWYKMQWVRQAPGKGLEWVSGISPSGGSTAYADSVKGRFTISRDNSKNTLYLQMNSLRAEDTAVYYCAKMGLFNTGNSYVDYWGQGTLVTVSS
VL: AQSELTQPPSVSEAPGQRVTISCSGSTSNIGNNAVIWYQQLPGKAPKLLIYYDDLLPSGVSDRFSGSKSGTSGSLAISGLQSEDEADYYCASWDDNLNGPLFGGGTKLTVL

Target: T1, recombinant HMG1 purified from E. coli …
Assay: BIAcore, mAb immobilized, HMG1 injected, steady-state model
Settings: remark: other sources report otherwise

Binder	Kd [nM]
B1	114
B2	331
B3	101

Source: patent US20080311122A1, “Antagonists of Hmgb1 and/or Rage and Methods of Use Thereof” (Medimmune, LLC, priority 2005, published 2008)
